This note sets out measurements from US9163330B2, “Bifunctional stapled polypeptides and uses thereof” (President and Fellows of Harvard College, priority 2009, dated 2015).

The data set relates to Hela cells. The data set can be described thus: Confocal microscopy of Hela cells treated with FITC-conjugated SID-series peptides. The format is cell-based. As to conditions: FITC-conjugated peptide, 10 μM, 6 hours, 37° C. As to the method: HeLa cells were grown on chamber slides overnight. 10 mM FITC-SID peptides in DMSO stock solutions were diluted in cell media to a final concentration of 10 μM, along with a 10 μM DMSO control. Cells were incubated in peptide/vehicle solutions at 37° C. for 6 hours, then washed thoroughly with media and PBS, and fixed with 4% paraformaldehyde. Slides were stained with Vectashield™ Hardset with DAPI. Images were taken with a Zeiss 710 confocal microscope.

Positions of bridges follow the written chain, without caps; N, C: chain ends. Non-standard residues stand in square brackets, D forms with d. No end group written: not given here. S5 = C=CCCC[C@](C)(N)C(=O)O; βAla = NCCC(=O)O

Regarding “βAla-VRRRI*MLL*AANYLER ([βAla]VRRRI[S5]MLL[S5]AANYLER; staple 7-11) [SID2]”, the cellular penetration entry is recorded as “robust cellular penetration”.
As to “βAla-VRRRIQMLLEAANK*ERR*R ([βAla]VRRRIQMLLEAANK[S5]ERR[S5]R; staple 16-20) [SID5]”, the cellular penetration entry is listed as “robust cellular penetration”.
